The nature of the series: amyloid nucleation score (Sup35N fusion, yeast selection) (log enrichment); library NNK1; higher = more nucleation; inactive = no reads after selection. Put shortly: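 Output and input plasmid inserts were sequenced by Illumina after psi-negative yeast carrying Sup35N fused to peptides of 20 random codons had been induced 24 hours with 100 μM copper sulfate and grown 7 days at 30°C on medium lacking adenine and uracil. The nucleation score is the DiMSum log enrichment of output over input reads, centred on the mode score of non-aggregating sequences. Sequences with under 100 input reads were excluded.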

± gives the uncertainty stated by the source.

Consider TSNHML, for which the amyloid nucleation score turned out to be 0.226 ± 0.61.

KPLEDFVDYKMMLMIHEEVC: the amyloid nucleation score stood at 0.763 ± 0.97.

Take GTLGSWSIIISLIRHSECLC: the amyloid nucleation score is -0.659 ± 0.46. As for RNKMMWLIICQGPPYRAWSP, the figure is 5.07 ± 0.07. As to VNSLVVLF, the amyloid nucleation score was found to be 1.84 ± 0.23.

On to VKGVD, for which the amyloid nucleation score came to 1.19 ± 0.64. As for PCYWQPPRRVAVATLSAAAL, the figure is -0.312 ± 0.49; as for PNTYGGIMECYV, -0.233 ± 0.42. As for YLFTYRRVTWGSTLQS, the figure is 1.65 ± 0.48. Under RVDTLYKVHLSKIRPSGGST stands -0.096 ± 0.75; under LKKTYYSMYL, -0.045 ± 0.33; under FWGCTQMSRLDATDVSL, 0.867 ± 1.

As for LSWES, the amyloid nucleation score was -0.866 ± 0.73. As for WVQGRRTFLVGWRGSQRGPI, the figure is -0.995 ± 0.81; as for AIFGVTPKSVITTYNFTLHM, 6.01 ± 0.088. Under PVCGFRRWKCLPN stands 0.318 ± 0.66. Under SPLNKMVTFVAVLAFVFVLV stands 0.114 ± 0.66; under INFRHA, 2.57 ± 0.33; under ILILNGLGGHVFARWYVACT, 0.002 ± 0.75. LFLCRILYCLWVNVFLLGHE displayed an amyloid nucleation score of 0.367 ± 0.32. Under WDFFYLMSMLPRDEVGFL stands 0.756 ± 0.46.

LYVLYAIRFLSFCSFWRYLI gave an amyloid nucleation score of -1.15 ± 0.51.

MDVGIFMIMTVTRWKGCSVI showed an amyloid nucleation score of 0.565 ± 0.48. As for IHVPNYVDRELELRASNSSR, the figure is -0.298 ± 0.32; as for AFVEVFHQGLLRSAMSQMVS, -0.378 ± 0.74. In the case of WAMREEVYSNSFSFMFALYW, the amyloid nucleation score stood at 0.651 ± 0.36. As for EFQMLEFYRANLPSKSQNTL, the figure is -0.777 ± 0.43; as for LRAFR, 1.81 ± 0.33. Under SKSFGFEYPG stands -0.002 ± 0.37; under TVLDFCFWYAGVVFKYARFV, -0.932 ± 0.39; under SGKNRYIVSSCSWLWAREDL, 0.424 ± 1. Under IVNNIVCSAGVDPFSQHCMD stands 1.84 ± 0.67; under IWCNMSFNIRV, 4.4 ± 0.088. As for WLTVITADSMAEGRQACRLP, the amyloid nucleation score was 0.132 ± 0.46. As for QVFGFYTMEKVYHVGGIASV, the figure is -0.296 ± 0.3. In turn, EQFNT showed an amyloid nucleation score of 0.323 ± 0.56.

For the substance ALDVWVLMKHSYGLSTVDAL, the amyloid nucleation score entry is “inactive”. Under SMIGRSCYEV stands “inactive”. As to TQRFFIVRMPSVCNNYYHLA, the amyloid nucleation score is 4.52 ± 0.067.

Turning to SFVVGNGYMVGWWFITAHVA, the amyloid nucleation score came to 0.499 ± 0.41. Regarding KVKRFDGCSSRSKHVVTEI, the amyloid nucleation score was 4.13 ± 0.076. Under MCINIKKNMFR stands 4.74 ± 0.048. As for CLPQLTDQPPKFHRLQFFCV, the figure is 0.348 ± 0.4; as for PWQRSSCLGTLVLVTNYDRY, 0.058 ± 0.44; as for TEGFGW, 1.28 ± 0.35.

For the substance LAIDNDSWFVETNYNFKFDV, the amyloid nucleation score is -0.438 ± 0.57. On to VWRTYVGPVCSMLAG, for which the amyloid nucleation score was 0.641 ± 0.32.

SDHRTW yielded an amyloid nucleation score of 0.743 ± 0.42. Under IDKNVIIIKVLCMLIVFPTG stands -0.771 ± 0.82. Substance HQIFIWVVGLGTFETPRNHK yielded an amyloid nucleation score of 5.96 ± 0.066. As for GNSWTSVVLHYFGSFSWGVT, the entry is “inactive”; as for GGRNWFYRALR, 0.362 ± 0.63; as for RQSWPGYFVCSYQCVRMGNR, -0.084 ± 0.3.

As to IRDTLNVCNKEEQKSRGS, the amyloid nucleation score was -0.358 ± 0.37.

For the substance PSFHICL, the amyloid nucleation score is -0.489 ± 0.41. VRENLNMLEIHRLGGVKKCV: the amyloid nucleation score is -1.06 ± 0.95. Under AHKWCVVCQTV stands 0.338 ± 0.52; under WFIAL, -0.068 ± 0.61.

For SKTEMSTTMFY, the amyloid nucleation score was -0.037 ± 0.38. Under TSVTSVMWPYSPNGYLAVFR stands -0.062 ± 1.2; under SMTVNDTLLRLRVGSAILYF, -0.852 ± 0.4. In the case of YVWDFRKLLYPAGWMSESVR, the amyloid nucleation score is -0.346 ± 1. Under AFYLN stands -0.055 ± 0.34. Under ICFRSFRHGNYGLMRG stands 1.35 ± 0.9. QMLIAGGAKTGTPLFPGASS returned an amyloid nucleation score of 0.358 ± 0.5. As for PNCDAYWVNWFKLRCLSHLF, the figure is -0.489 ± 1.7. On to NFACVFTSTSRMCRH, for which the amyloid nucleation score was 3.85 ± 0.1.

NGFNKSRAQWFGSVSCSPEG: the amyloid nucleation score is 0.174 ± 1.5. As for CRLSNGV, the figure is -0.392 ± 0.31; as for IIHFKSGIWNATDGCLIMCV, 0.793 ± 0.65. In turn, VRLIRGGFDGHADNAVCRWQ came in with an amyloid nucleation score of 0.279 ± 0.7. Turning to TEDAQRGD, the amyloid nucleation score was -0.302 ± 0.5. The substance VLGISLSERNLKGIV registered an amyloid nucleation score of 0.232 ± 0.32.

Turning to LVLLQVVIYGHLQCSFYQMH, the amyloid nucleation score came out at 1.8 ± 0.23. Under VNRFCSVQVDS stands 0.074 ± 0.47; under RDCWQ, -0.571 ± 0.3; under SSIVIRTCKWYGTVCIWELL, -0.339 ± 0.39. Under VYMMGGTLLRPYAILSYLDP stands 0.465 ± 0.3. Under AHTLSYVFWLYHMDQCVLFV stands -0.127 ± 1.4.

In turn, EGSIMRGWLFICYNLF displayed an amyloid nucleation score of -0.244 ± 0.93. As for SKRCWGDGMDTFSAIVEAIW, the figure is -0.128 ± 0.54; as for PQLTRSGQ, -0.14 ± 0.28; as for LRDNMLSEGMQLYCMARASA, -0.201 ± 0.72.

In the case of DYNIVYYNLYNTYINNYQSF, the amyloid nucleation score came out at 7.72 ± 0.048. As for SFGKVPFDLPKNFPRVSSVT, the figure is -0.276 ± 0.33; as for RCDSMSCTVYCEGNS, -1.03 ± 1.5; as for STNFLWTTFGFFHVCLDGAM, -0.218 ± 0.92. VMGIDSFTYAG came in with an amyloid nucleation score of -0.315 ± 0.54. Under HSLEDMKHRLGLGGWSSCKV stands 0.183 ± 0.57; under MHRGALSTMQHLHEISLLSC, 0.886 ± 0.52; under WAILLSWGYKGSRAWWFFSI, -0.721 ± 0.49.

CSRANRKGECG had an amyloid nucleation score of -0.62 ± 1.3.

In the case of KNFHELTVDYVCVLYREQLF, the amyloid nucleation score is 0.115 ± 0.26. As for KLLSGRLDTFSGGGDYMCPV, the entry is “inactive”; as for YLLPEPKQCVSPE, 0.625 ± 0.5.

With VRNNYSTSIRVVRMAIMWPG, the amyloid nucleation score was found to be 5.83 ± 0.078. As for TWQFCDVRL, the figure is -0.064 ± 0.39; as for NQTSLAILSRSSQGHGTKVY, 0.623 ± 0.95; as for YWDEIRCNSKNFDPCPFKAS, 0.54 ± 0.19.

Turning to GMLDAY, the amyloid nucleation score entry is “inactive”. As for ELFSAIPATIHCI, the figure is -0.057 ± 1.1. Take QNYSLNWSITGLVRLLSRIC: the amyloid nucleation score is -0.73 ± 0.55. Under LYSVISPLSEDTYDCLSVPY stands 0.297 ± 0.79. Under NLLFAVMLVFSRVQVVFNNG stands -0.355 ± 0.25; under TQLSMWSVRIKISYWVSGGV, 0.804 ± 1.1; under FHHCFIQTSSDAVSSGLDFE, 0.644 ± 0.78. As for TKTTVHCFSSMIQYCAAPTL, the figure is -0.158 ± 0.73; as for YLLTHQRKTSLQE, 1.06 ± 0.97. Substance NSFRWDLTLLLWARINVDSF registered an amyloid nucleation score of 1.49 ± 0.7. As for CNSRNITT, the figure is -0.345 ± 0.67.

Regarding DGHGRYA, the amyloid nucleation score entry is “inactive”.

The substance LCGSGGLMCRQGHYAEMGGC showed an amyloid nucleation score of -0.287 ± 1.1. Take NRSRWPIHGFLIANKSPLQF: the amyloid nucleation score was 0.486 ± 0.38. Under QIIPTRFGWFSNRGCVLGSY stands 1.08 ± 0.38; under ATSALGCVTHVIMSNILTMN, 0.106 ± 0.34; under ISCTTFACTTRLKIRAAS, 0.434 ± 0.56.

Regarding YSARLLSERIKWHFTLMMND, the amyloid nucleation score was found to be 0.41 ± 0.36. Take ISEGVIRDMSNRVRGSMQEI: the amyloid nucleation score was -0.175 ± 1.2. Under LTITGSFIHPI stands -0.739 ± 0.79; under NNKGSLSPGNLDTSDESEFS, 0.652 ± 0.29. As for ELSNRVRTEFVCIRTLVEDN, the entry is “inactive”. For TLSISTMIAAVGTLSVCGDM, the amyloid nucleation score is 0.768 ± 0.16. In the case of VSIRFSCRRIYNFLVEFPLG, the amyloid nucleation score was -0.102 ± 0.19.

In turn, AEWLWEVGGMGCQVKGEEAR registered an amyloid nucleation score of -0.34 ± 0.36. Under TVDGTECCWVDTRNNSRMVK stands -0.941 ± 0.78; under LVNVGGQEIKVMR, 0.888 ± 0.2; under HLCFIADGQLRTVVVELFPI, 0.576 ± 0.42.

With RSYSSLSR, the amyloid nucleation score came out at 0.792 ± 0.58. Under AIMCKYLRKLVLMFFSR stands 0.811 ± 0.55.

As to CEMMDNPFLLLRVKGSKVRS, the amyloid nucleation score result was “inactive”. As for CEGKGWFANITYSDFLLIMR, the figure is -0.462 ± 0.97; as for TTSWDYFGAKEIIRFVMVTC, -2.12 ± 2.7. Under SVPVQD stands 0.633 ± 0.4. Under MAFLYFMFILFHARCLIRLP stands -0.177 ± 0.65; under VNVCESTPPDVESRGVCDAG, 2.06 ± 0.1; under FAEFKDICMRE, 0.978 ± 0.74. For ILVPYLIAFFMEYRSRLCRF, the amyloid nucleation score is 0.254 ± 0.27. As for DLCTNYQWFRAAYCYMSRVY, the figure is 1.2 ± 0.98; as for YSGHWLVHLPCHHQVR, -0.028 ± 0.46.

As to SSWFFYQNIAVSYSNKAINF, the amyloid nucleation score worked out at 0.379 ± 0.17. Substance IMSSL returned an amyloid nucleation score of -0.507 ± 0.73.

The values are drawn from the supplement of paper PMC12042874.
